In patent US20210395374A1:

Legend:
[1] = molecular target: Cynomolgus CD3ε/δ (cynomolgus monkey) (UniProt Q95LI5); test: kinetic binding analysis (ka/kd); method not stated
[2] = molecular target: Human CD3ε/δ (human) (UniProt P07766); test: as above
Sequence of UniProt P07766 (P07766 23-126, stated change not applied, chain 1 of 2): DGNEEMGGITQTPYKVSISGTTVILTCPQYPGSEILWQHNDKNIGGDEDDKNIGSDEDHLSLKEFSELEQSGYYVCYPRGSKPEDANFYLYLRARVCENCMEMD
Sequence of UniProt P07766 (P04234 22-105, stated change not applied, chain 2 of 2, further chain): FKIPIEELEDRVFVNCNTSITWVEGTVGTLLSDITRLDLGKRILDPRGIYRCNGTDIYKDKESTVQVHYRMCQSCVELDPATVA

Sequence of UniProt Q95LI5 (Q95LI5 22-117, stated change not applied, chain 1 of 2): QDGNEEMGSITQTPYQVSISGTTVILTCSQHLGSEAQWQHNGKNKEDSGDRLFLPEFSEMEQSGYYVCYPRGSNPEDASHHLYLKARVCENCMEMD
Sequence of UniProt Q95LI5 (Q95LI8 22-105, stated change not applied, chain 2 of 2, further chain): as the sequence (P04234 22-105, stated change not applied, chain 2 of 2, further chain) above, with I5V, N15K, I20V, S32T, D33N, I34N, T64A, S74N, V83L counted along it

Kd [1]: 9.2 nM
koff [1]: 0.005 s⁻¹
kon [1]: 550000 M⁻¹ s⁻¹
Kd [2]: 9 nM
koff [2]: 0.005 s⁻¹
kon [2]: 570000 M⁻¹ s⁻¹
B1: DART-A (sequence-optimized CD123×CD3 bispecific diabody) (bispecific antibody)
chain 1: QAVVTQEPSLTVSPGGTVTLTCRSSTGAVTTSNYANWVQQKPGQAPRGLIGGTNKRAPWTPARFSGSLLGGKAALTITGAQAEDEADYYCALWYSNLWVFGGGTKLTVLGGGGSGGGGEVQLVQSGAELKKPGASVKVSCKASGYTFTDYYMKWVRQAPGQGLEWIGDIIPSNGATFYNQKFKGRVTITVDKSTSTAYMELSSLRSEDTAVYYCARSHLLRASWFAYWGQGTLVTVSSGGCGGGEVAALEKEVAALEKEVAALEKEVAALEK
chain 2: DFVMTQSPDSLAVSLGERVTMSCKSSQSLLNSGNQKNYLTWYQQKPGQPPKLLIYWASTRESGVPDRFSGSGSGTDFTLTISSLQAEDVAVYYCQNDYSYPYTFGQGTKLEIKGGGSGGGGEVQLVESGGGLVQPGGSLRLSCAASGFTFSTYAMNWVRQAPGKGLEWVGRIRSKYNNYATYYADSVKDRFTISRDDSKNSLYLQMNSLKTEDTAVYYCVRHGNFGNSYVSWFAYWGQGTLVTVSSGGCGGGKVAALKEKVAALKEKVAALKEKVAALKE
